For this test, the target named is T1, 人源PDGFRβ全长 (human PDGFRβ, full length, on cells) (human, UniProt P09619 33-1106).
T1 construct: whole, on cells; also called HEK293-hPDGFRβ稳定细胞株; 细胞表面的PDGFRβ
Briefly: flow cytometry on HEK293-hPDGFRβ cells, Alexa488 secondary antibody.

T1 sequence (P09619 33-1106): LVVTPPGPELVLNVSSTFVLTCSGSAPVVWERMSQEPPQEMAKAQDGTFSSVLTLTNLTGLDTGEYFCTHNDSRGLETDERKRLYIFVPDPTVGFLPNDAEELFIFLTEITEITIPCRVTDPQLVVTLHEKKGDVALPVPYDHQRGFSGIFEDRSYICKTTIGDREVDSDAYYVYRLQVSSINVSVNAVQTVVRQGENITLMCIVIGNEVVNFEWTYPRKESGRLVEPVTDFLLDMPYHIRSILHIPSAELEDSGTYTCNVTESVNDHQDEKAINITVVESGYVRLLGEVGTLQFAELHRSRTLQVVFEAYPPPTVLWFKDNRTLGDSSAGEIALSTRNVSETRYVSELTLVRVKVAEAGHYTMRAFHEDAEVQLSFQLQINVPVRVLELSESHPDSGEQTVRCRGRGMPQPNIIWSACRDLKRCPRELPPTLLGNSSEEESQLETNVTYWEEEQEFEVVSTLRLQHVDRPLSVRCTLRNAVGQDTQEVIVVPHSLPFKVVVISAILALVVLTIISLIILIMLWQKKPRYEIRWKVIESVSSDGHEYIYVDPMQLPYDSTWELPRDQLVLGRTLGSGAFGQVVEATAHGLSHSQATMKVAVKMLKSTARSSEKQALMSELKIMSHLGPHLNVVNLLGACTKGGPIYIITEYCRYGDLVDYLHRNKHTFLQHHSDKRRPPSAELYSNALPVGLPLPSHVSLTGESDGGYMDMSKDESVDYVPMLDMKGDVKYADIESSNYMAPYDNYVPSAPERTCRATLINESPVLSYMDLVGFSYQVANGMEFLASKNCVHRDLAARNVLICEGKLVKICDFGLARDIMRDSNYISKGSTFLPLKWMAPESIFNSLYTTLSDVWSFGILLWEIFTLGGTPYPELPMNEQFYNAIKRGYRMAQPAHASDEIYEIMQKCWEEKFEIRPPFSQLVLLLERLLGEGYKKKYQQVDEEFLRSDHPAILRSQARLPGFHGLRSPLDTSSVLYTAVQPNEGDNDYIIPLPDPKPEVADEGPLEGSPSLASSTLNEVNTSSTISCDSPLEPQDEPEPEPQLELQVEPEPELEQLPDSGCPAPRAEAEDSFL

B1: 39E10E12B3 (antibody, V domains shown)
VH: EVQLVESGGGVVQPGRSLRLSCAASGFTFSSYGMHWVRQAPGKGLEWVAVIWYDGSNKYYADSVKGRFTISRDNSKNTLYLQMNSLRAEDTAVYYCAVTGDVDYWGQGTLVTVSS
notes: Heavy-chain-only monoclonal antibody (no light chain), purified from a hybridoma made from HCAb transgenic mice; also called 重链抗体39E10E12B3; PDGFRβ抗体
Turning to B1, the binding result is listed as “binds”.

(Values after patent CN109021104A (SHANGHAI CHEMPARTNER CO LTD; GATEWAY BIOTECHNOLOGY SHANGHAI …, dated 2018).)
